B1: ATAD3A-Flag [not stated] / itself (parent)
chain: MSWLFGIKGPKGEGTGPPLPLPPAQPGAESGGDRGAGDRPSPKDKWSNFDPTGLERAAKAARELEHSRHAKEALNLAQMQEQTLQLEQQSKLKEYEAAVEQLKSEQIRVQAEERRKTLNEETRQHQARAQYQDKLARQRYEDQLKQQQLLNEENLRKQEESVQKQEAIRRATVEREMELRHKNEMLRVEAEARARAKADRENADIIREQIRLKAAEHRQTILESIRTAGTLFGEGFRAFVTDWDKVTATVAGLTLLAVGVYSAKNATSVAGRYIEARLGKPSLVRETSRISVLEALRHPIQVSRRLVSRPQDALEGVILSPSLEARVRDIAIATRNTKKNKSLYRNVLMYGPPGTGKTLFAKKLALHSGMDYAIMTGGDVAPMGREGVTAMHKVFDWASTSRRGLLLFVDEADAFLRKRATEKISEDLRATLNAFLHRTGQHSNKFMLVLASNQPEQFDWAINDRIDEMVCFALPQREERERLVRMYFDKYVLKPATEGKQRLKVAQFDYGKKCSEVAQLTAGMSGREIAQLAVAWQAMAYSSEDGVLTEAMMDARVQDAVQQHQQKMQWLKVERPDSEASKPPHPSLLSC

In this experiment the parent is B1. Nature of the experiment: native gel electrophoresis (-DTT), anti-Flag immunoblot, oligomer band quantified. The conditions noted are these: with itself, H9c2 cells, n = 3, mean ± SEM, parent: 1, read off a plot.
For the variant MSWLFGIKGPKGEGTGPPLPLPPAQPGAESGGDRGAGDRPSPKDKWSNFDPTGLERAAKAARELEHSRHAKEALNLAQMQEQTLQLEQQSKLKEYEAAVEQLKSEQIRVQAEERRKTLNEETRQHQARAQYQDQLARQRYEDQLKQQQLLNEENLRKQEESVQKQEAIRRATVEREMELRHKNEMLRVEAEARARAKADRENADIIREQIRLKAAEHRQTILESIRTAGTLFGEGFRAFVTDWDKVTATVAGLTLLAVGVYSAKNATSVAGRYIEARLGKPSLVRETSRISVLEALRHPIQVSRRLVSRPQDALEGVILSPSLEARVRDIAIATRNTKKNKSLYRNVLMYGPPGTGKTLFAKKLALHSGMDYAIMTGGDVAPMGREGVTAMHKVFDWASTSRRGLLLFVDEADAFLRKRATEKISEDLRATLNAFLHRTGQHSNKFMLVLASNQPEQFDWAINDRIDEMVCFALPQREERERLVRMYFDKYVLKPATEGKQRLKVAQFDYGKKCSEVAQLTAGMSGREIAQLAVAWQAMAYSSEDGVLTEAMMDARVQDAVQQHQQKMQWLKVERPDSEASKPPHPSLLSC [chain 1 K134Q], the response is 0.16 arbitrary.
In the case of MSWLFGIKGPKGEGTGPPLPLPPAQPGAESGGDRGAGDRPSPKDKWSNFDPTGLERAAKAARELEHSRHAKEALNLAQMQEQTLQLEQQSKLKEYEAAVEQLKSEQIRVQAEERRKTLNEETRQHQARAQYQDALARQRYEDQLKQQQLLNEENLRKQEESVQKQEAIRRATVEREMELRHKNEMLRVEAEARARAKADRENADIIREQIRLKAAEHRQTILESIRTAGTLFGEGFRAFVTDWDKVTATVAGLTLLAVGVYSAKNATSVAGRYIEARLGKPSLVRETSRISVLEALRHPIQVSRRLVSRPQDALEGVILSPSLEARVRDIAIATRNTKKNKSLYRNVLMYGPPGTGKTLFAKKLALHSGMDYAIMTGGDVAPMGREGVTAMHKVFDWASTSRRGLLLFVDEADAFLRKRATEKISEDLRATLNAFLHRTGQHSNKFMLVLASNQPEQFDWAINDRIDEMVCFALPQREERERLVRMYFDKYVLKPATEGKQRLKVAQFDYGKKCSEVAQLTAGMSGREIAQLAVAWQAMAYSSEDGVLTEAMMDARVQDAVQQHQQKMQWLKVERPDSEASKPPHPSLLSC [chain 1 K134A], the response was found to be 0.42 arbitrary.
Take MSWLFGIKGPKGEGTGPPLPLPPAQPGAESGGDRGAGDRPSPKDKWSNFDPTGLERAAKAARELEHSRHAKEALNLAQMQEQTLQLEQQSKLKEYEAAVEQLKSEQIRVQAEERRKTLNEETRQHQARAQYQDELARQRYEDQLKQQQLLNEENLRKQEESVQKQEAIRRATVEREMELRHKNEMLRVEAEARARAKADRENADIIREQIRLKAAEHRQTILESIRTAGTLFGEGFRAFVTDWDKVTATVAGLTLLAVGVYSAKNATSVAGRYIEARLGKPSLVRETSRISVLEALRHPIQVSRRLVSRPQDALEGVILSPSLEARVRDIAIATRNTKKNKSLYRNVLMYGPPGTGKTLFAKKLALHSGMDYAIMTGGDVAPMGREGVTAMHKVFDWASTSRRGLLLFVDEADAFLRKRATEKISEDLRATLNAFLHRTGQHSNKFMLVLASNQPEQFDWAINDRIDEMVCFALPQREERERLVRMYFDKYVLKPATEGKQRLKVAQFDYGKKCSEVAQLTAGMSGREIAQLAVAWQAMAYSSEDGVLTEAMMDARVQDAVQQHQQKMQWLKVERPDSEASKPPHPSLLSC [chain 1 K134E]: the response was 1 arbitrary.

For the origin of these results see publication PMC10797690, “The SIRT3-ATAD3A axis regulates MAM dynamics and mitochondrial calcium homeostasis in cardiac hypertrophy” (International Journal of Biological Sciences, 2024).
